{"source": "paper PMC10397247", "key": {"P2-AA-1HAA-T": {"target": "T1, P2-AA-1HAA-T", "T1 chain": "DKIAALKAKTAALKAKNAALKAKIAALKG", "experiment": "two-hybrid library CCmax;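 further: natural log of median RNA to DNA barcode read ratio; higher means stronger binding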", "conditions": "mean of both orientations"}, "P2-AA-1HAA-Y": {"target": "T2, P2-AA-1HAA-Y", "T2 chain": "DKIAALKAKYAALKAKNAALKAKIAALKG", "experiment": "two-hybrid library CCmax", "conditions": "mean of both orientations"}, "P2-AA-1HAA-E": {"target": "T3, P2-AA-1HAA-E", "T3 chain": "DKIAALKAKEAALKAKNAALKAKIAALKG", "experiment": "two-hybrid library CCmax", "conditions": "mean of both orientations"}, "P2-AA-1HAA-V": {"target": "T4, P2-AA-1HAA-V", "T4 chain": "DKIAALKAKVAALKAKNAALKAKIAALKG", "experiment": "two-hybrid library CCmax", "conditions": "mean of both orientations"}, "P2-AA": {"target": "T5, P2-AA", "T5 chain": "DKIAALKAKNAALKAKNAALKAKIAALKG", "experiment": "two-hybrid library CCmax", "conditions": "mean of both orientations"}, "P2-AA-1HAA-I": {"target": "T6, P2-AA-1HAA-I", "T6 chain": "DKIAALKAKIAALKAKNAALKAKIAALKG", "experiment": "two-hybrid library CCmax", "conditions": "mean of both orientations"}, "P2-AA-1HAA-S": {"target": "T7, P2-AA-1HAA-S", "T7 chain": "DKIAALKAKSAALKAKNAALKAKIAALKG", "experiment": "two-hybrid library CCmax", "conditions": "mean of both orientations"}, "P2-AA-1HAA-R": {"target": "T8, P2-AA-1HAA-R", "T8 chain": "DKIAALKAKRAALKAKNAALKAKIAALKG", "experiment": "two-hybrid library CCmax", "conditions": "mean of both orientations"}, "P11A-bP": {"target": "T9, P11A-bP", "T9 chain": "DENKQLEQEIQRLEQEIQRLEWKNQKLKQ", "experiment": "two-hybrid library CCNG1"}, "P2A-bP": {"target": "T10, P2A-bP", "T10 chain": "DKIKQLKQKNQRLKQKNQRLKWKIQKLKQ", "experiment": "two-hybrid library CCNG1"}, "P4A-bP": {"target": "T11, P4A-bP", "T11 chain": "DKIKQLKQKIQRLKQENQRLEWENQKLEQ", "experiment": "two-hybrid library CCNG1"}, "P8A-bP": {"target": "T12, P8A-bP", "T12 chain": "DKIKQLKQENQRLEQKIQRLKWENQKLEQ", "experiment": "two-hybrid library CCNG1"}, "P12A-bP": {"target": "T13, P12A-bP", "T13 chain": "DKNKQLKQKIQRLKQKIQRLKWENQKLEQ", "experiment": "two-hybrid library CCNG1"}, "P9A-bP": {"target": "T14, P9A-bP", "T14 chain": "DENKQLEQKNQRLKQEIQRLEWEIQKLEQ", "experiment": "two-hybrid library CCNG1"}, "P5A-bP": {"target": "T15, P5A-bP", "T15 chain": "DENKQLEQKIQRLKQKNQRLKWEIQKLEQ", "experiment": "two-hybrid library CCNG1"}, "P6A-bP": {"target": "T16, P6A-bP", "T16 chain": "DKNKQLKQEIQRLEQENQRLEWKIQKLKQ", "experiment": "two-hybrid library CCNG1"}, "P3A-bP": {"target": "T17, P3A-bP", "T17 chain": "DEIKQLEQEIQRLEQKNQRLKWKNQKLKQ", "experiment": "two-hybrid library CCNG1"}, "P7A-bP": {"target": "T18, P7A-bP", "T18 chain": "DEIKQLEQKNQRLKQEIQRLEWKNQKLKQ", "experiment": "two-hybrid library CCNG1"}, "P1A-bP": {"target": "T19, P1A-bP", "T19 chain": "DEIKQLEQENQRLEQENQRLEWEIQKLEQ", "experiment": "two-hybrid library CCNG1"}, "P7mSN": {"target": "T20, P7mSN", "T20 chain": "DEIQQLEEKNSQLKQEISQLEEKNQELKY", "experiment": "two-hybrid library CCNG1"}, "P2mSN": {"target": "T21, P2mSN", "T21 chain": "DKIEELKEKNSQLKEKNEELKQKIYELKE", "experiment": "two-hybrid library CCNG1"}, "P12mSN": {"target": "T22, P12mSN", "T22 chain": "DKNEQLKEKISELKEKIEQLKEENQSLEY", "experiment": "two-hybrid library CCNG1"}, "P11mSN": {"target": "T23, P11mSN", "T23 chain": "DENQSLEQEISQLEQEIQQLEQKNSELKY", "experiment": "two-hybrid library CCNG1"}, "P4mSN": {"target": "T24, P4mSN", "T24 chain": "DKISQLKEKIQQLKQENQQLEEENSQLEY", "experiment": "two-hybrid library CCNG1"}, "P9mSN": {"target": "T25, P9mSN", "T25 chain": "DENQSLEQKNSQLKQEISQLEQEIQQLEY", "experiment": "two-hybrid library CCNG1"}, "P3mSN": {"target": "T26, P3mSN", "T26 chain": "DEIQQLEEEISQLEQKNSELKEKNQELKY", "experiment": "two-hybrid library CCNG1"}, "P8mSN": {"target": "T27, P8mSN", "T27 chain": "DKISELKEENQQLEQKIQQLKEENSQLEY", "experiment": "two-hybrid library CCNG1"}, "P5mSN": {"target": "T28, P5mSN", "T28 chain": "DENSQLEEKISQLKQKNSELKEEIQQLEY", "experiment": "two-hybrid library CCNG1"}, "P1mSN": {"target": "T29, P1mSN", "T29 chain": "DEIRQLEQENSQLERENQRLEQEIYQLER", "experiment": "two-hybrid library CCNG1"}, "P6mSN": {"target": "T30, P6mSN", "T30 chain": "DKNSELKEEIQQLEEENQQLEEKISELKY", "experiment": "two-hybrid library CCNG1"}, "P4SHb": {"target": "T31, P4SHb", "T31 chain": "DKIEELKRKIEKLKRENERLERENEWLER", "experiment": "two-hybrid library CCNG1"}, "P12SHb": {"target": "T32, P12SHb", "T32 chain": "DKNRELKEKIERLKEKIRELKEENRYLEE", "experiment": "two-hybrid library CCNG1"}, "P8SHb": {"target": "T33, P8SHb", "T33 chain": "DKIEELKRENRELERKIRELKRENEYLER", "experiment": "two-hybrid library CCNG1"}, "P2SHb": {"target": "T34, P2SHb", "T34 chain": "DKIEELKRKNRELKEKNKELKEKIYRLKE", "experiment": "two-hybrid library CCNG1"}, "P1SHb": {"target": "T35, P1SHb", "T35 chain": "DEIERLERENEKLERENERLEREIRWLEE", "experiment": "two-hybrid library CCNG1"}, "P7SHb": {"target": "T36, P7SHb", "T36 chain": "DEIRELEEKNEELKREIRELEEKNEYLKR", "experiment": "two-hybrid library CCNG1"}, "P9SHb": {"target": "T37, P9SHb", "T37 chain": "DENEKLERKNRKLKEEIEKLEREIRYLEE", "experiment": "two-hybrid library CCNG1"}, "P3SHb": {"target": "T38, P3SHb", "T38 chain": "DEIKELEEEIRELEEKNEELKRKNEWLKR", "experiment": "two-hybrid library CCNG1"}, "P6SHb": {"target": "T39, P6SHb", "T39 chain": "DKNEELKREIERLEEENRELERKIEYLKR", "experiment": "two-hybrid library CCNG1"}, "P11SHb": {"target": "T40, P11SHb", "T40 chain": "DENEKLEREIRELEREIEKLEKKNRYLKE", "experiment": "two-hybrid library CCNG1"}}}
{"binder": "DEIAALEAEIAALEAENAALEAEIAALEG", "note": "[P1-AA-1HAA-I]", "values": [{"measurement": "interaction score", "setting": "P2-AA-1HAA-T", "value": 1.91}, {"measurement": "interaction score", "setting": "P2-AA-1HAA-Y", "value": 2.08}, {"measurement": "interaction score", "setting": "P2-AA-1HAA-E", "value": 1.82}, {"measurement": "interaction score", "setting": "P2-AA-1HAA-V", "value": 1.69}, {"measurement": "interaction score", "setting": "P2-AA", "value": 2.21}, {"measurement": "interaction score", "setting": "P2-AA-1HAA-I", "value": 2.11}, {"measurement": "interaction score", "setting": "P2-AA-1HAA-S", "value": 2.03}, {"measurement": "interaction score", "setting": "P2-AA-1HAA-R", "value": 2.06}]}
{"binder": "DENKQLEQEIQRLEQEIQRLEWKNQKLKQ", "note": "[P11A-bP]", "values": [{"measurement": "interaction score", "setting": "P11A-bP", "value": -0.677}, {"measurement": "interaction score", "setting": "P2A-bP", "value": -0.486}, {"measurement": "interaction score", "setting": "P4A-bP", "value": -0.08}, {"measurement": "interaction score", "setting": "P8A-bP", "value": 0.201}, {"measurement": "interaction score", "setting": "P12A-bP", "value": 1.42}, {"measurement": "interaction score", "setting": "P9A-bP", "value": 0.853}, {"measurement": "interaction score", "setting": "P5A-bP", "value": -0.091}, {"measurement": "interaction score", "setting": "P6A-bP", "value": 0}, {"measurement": "interaction score", "setting": "P3A-bP", "value": -2.11}, {"measurement": "interaction score", "setting": "P7A-bP", "value": -2.06}, {"measurement": "interaction score", "setting": "P1A-bP", "value": -0.431}]}
{"binder": "DENQSLEQEISQLEQEIQQLEQKNSELKY", "note": "[P11mSN]", "values": [{"measurement": "interaction score", "setting": "P7mSN", "value": -1.52}, {"measurement": "interaction score", "setting": "P2mSN", "value": -1.32}, {"measurement": "interaction score", "setting": "P12mSN", "value": 1.46}, {"measurement": "interaction score", "setting": "P11mSN", "value": 0.11}, {"measurement": "interaction score", "setting": "P4mSN", "value": 0.374}, {"measurement": "interaction score", "setting": "P9mSN", "value": -1.27}, {"measurement": "interaction score", "setting": "P3mSN", "value": -0.972}, {"measurement": "interaction score", "setting": "P8mSN", "value": 0.0166}, {"measurement": "interaction score", "setting": "P5mSN", "value": -0.097}, {"measurement": "interaction score", "setting": "P1mSN", "value": -0.413}, {"measurement": "interaction score", "setting": "P6mSN", "value": -0.793}]}
{"binder": "DENEKLEREIRELEREIEKLEKKNRYLKE", "note": "[P11SHb]", "values": [{"measurement": "interaction score", "setting": "P4SHb", "value": 0.998}, {"measurement": "interaction score", "setting": "P12SHb", "value": 1.61}, {"measurement": "interaction score", "setting": "P8SHb", "value": -0.421}, {"measurement": "interaction score", "setting": "P2SHb", "value": 0.79}, {"measurement": "interaction score", "setting": "P1SHb", "value": -0.267}, {"measurement": "interaction score", "setting": "P7SHb", "value": 0.246}, {"measurement": "interaction score", "setting": "P9SHb", "value": 0.702}, {"measurement": "interaction score", "setting": "P3SHb", "value": -0.138}, {"measurement": "interaction score", "setting": "P6SHb", "value": 1.17}, {"measurement": "interaction score", "setting": "P11SHb", "value": 0.241}]}
